The record followed here is patent publication US20100144634A1 (published 2010).

The target of data set [1] is B-domainless derivative of human factor VIII, FVIII-SQ, P00451.
Data set [2] has as its target recombinant human full-length coagulation factor VIII, P00451.
The target of data set [3] is T1, human factor VIII derivative lacking the entire B domain and acidic region a3 (741-1689), FVIII-2RKR, P00451.
T1 chain 1: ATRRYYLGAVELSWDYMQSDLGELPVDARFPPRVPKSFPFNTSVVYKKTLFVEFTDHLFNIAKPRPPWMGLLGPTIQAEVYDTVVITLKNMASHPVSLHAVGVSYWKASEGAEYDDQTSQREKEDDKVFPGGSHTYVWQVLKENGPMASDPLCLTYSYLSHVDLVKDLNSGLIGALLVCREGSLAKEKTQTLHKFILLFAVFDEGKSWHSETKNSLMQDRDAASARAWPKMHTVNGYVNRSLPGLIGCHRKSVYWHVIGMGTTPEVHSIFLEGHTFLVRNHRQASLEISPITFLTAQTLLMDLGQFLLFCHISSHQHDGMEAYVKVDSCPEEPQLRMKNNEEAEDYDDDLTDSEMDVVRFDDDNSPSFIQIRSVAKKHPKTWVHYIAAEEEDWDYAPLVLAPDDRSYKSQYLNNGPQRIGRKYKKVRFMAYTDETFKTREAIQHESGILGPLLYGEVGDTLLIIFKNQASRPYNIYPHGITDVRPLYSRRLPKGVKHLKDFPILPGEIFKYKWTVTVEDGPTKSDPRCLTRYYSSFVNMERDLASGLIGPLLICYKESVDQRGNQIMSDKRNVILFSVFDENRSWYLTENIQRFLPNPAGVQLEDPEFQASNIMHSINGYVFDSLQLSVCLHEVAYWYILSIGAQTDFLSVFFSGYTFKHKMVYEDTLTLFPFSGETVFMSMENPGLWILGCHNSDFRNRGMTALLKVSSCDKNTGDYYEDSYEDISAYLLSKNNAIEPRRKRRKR
T1 chain 2: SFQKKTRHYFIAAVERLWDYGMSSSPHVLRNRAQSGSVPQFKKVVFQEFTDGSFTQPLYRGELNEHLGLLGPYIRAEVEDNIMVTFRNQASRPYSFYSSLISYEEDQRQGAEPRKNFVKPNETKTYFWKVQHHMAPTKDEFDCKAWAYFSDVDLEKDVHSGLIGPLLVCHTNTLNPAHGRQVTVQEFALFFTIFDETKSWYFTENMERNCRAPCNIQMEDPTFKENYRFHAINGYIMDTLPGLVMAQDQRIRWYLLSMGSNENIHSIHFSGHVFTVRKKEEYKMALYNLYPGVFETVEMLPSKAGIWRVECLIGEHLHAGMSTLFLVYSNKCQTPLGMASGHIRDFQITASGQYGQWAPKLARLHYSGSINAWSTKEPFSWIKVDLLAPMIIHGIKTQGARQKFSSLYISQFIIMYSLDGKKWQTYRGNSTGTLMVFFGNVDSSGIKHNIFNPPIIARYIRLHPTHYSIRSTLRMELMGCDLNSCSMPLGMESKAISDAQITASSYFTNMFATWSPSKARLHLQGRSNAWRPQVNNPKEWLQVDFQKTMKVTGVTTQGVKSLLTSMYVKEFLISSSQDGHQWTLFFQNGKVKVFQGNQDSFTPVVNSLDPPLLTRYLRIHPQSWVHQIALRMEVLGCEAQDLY

The target in data set [4] is T2, von Willebrand factor (VWF), purified plasma-derived, multimeric, native (UniProt P04275 764-2813).
T2 construct: mature; human is implied; also called pvWF; plasma VWF
Kind of data set: SPR (BIAcore), VWF injected under flow over FL-A13 immobilised on CM5, equilibrium fit, no EDTA. As for the experimental part:
Briefly, the surface of a carboxymethylated dextran (CM5) chip was activated by injection of 35 μl mixture (1:1, vol:vol) of 0.4 M 1-ethyl-3-(3-dimethylaminopropyl) carbodiimide and 0.1 M N-hydroxysuccinimide according to manufacturer's instruction (BIAcore, Uppsala, Sweden). Approximately 2,000 to 8,000 response units (RU) (2˜10 ng/mm²) of purified recombinant proteins were covalently attached onto the activated CM5 chip surface. The control surface was activated similarly, but blocked by same amount of BSA (Sigma, St. Louis, Mo.). The reactive groups on the dextran surface were blocked by injection of 35 μl of 1 M ethanolamine (pH 8.5) at flow rate of 5 μl per min for 7 min. Then, purified plasma VWF at various concentrations (0-250 μg/ml or 0-1,000 nM as in FIG. 3; 0-125 μg/ml or 0-500 nM as in FIG. 4) in 10 mM HEPES, 150 mM NaCl, pH 7.5 containing 0.005% Tween 20 and 2 mg/ml BSA (HBS-T) were injected and passed over the surface at injection rate 10 to 100 μl/min or 20 μl/min for 3-5 min. […] The dissociation constants, KD (S) at the equilibrium were determined by fitting the data from the binding isotherm using a non-linear regression curve on the PRISM4 software (GraphPad Software, Inc., San Diego, Calif.). […]
(SPR reads the build-up and loss of mass on a sensor chip optically.)

The target in data set [5] is T2, von Willebrand factor (VWF), purified …. Kind of data set: SPR (BIAcore), VWF injected under flow over immobilised FL-A13, equilibrium fit, in the presence of 10 mM EDTA. How it is done: Approximately 2,000 to 8,000 response units (RU) (2˜10 ng/mm²) of purified recombinant proteins were covalently attached onto the activated CM5 chip surface. The control surface was activated similarly, but blocked by same amount of BSA (Sigma, St. Louis, Mo.). The reactive groups on the dextran surface were blocked by injection of 35 μl of 1 M ethanolamine (pH 8.5) at flow rate of 5 μl per min for 7 min. Then, purified plasma VWF at various concentrations (0-250 μg/ml or 0-1,000 nM as in FIG. 3; 0-125 μg/ml or 0-500 nM as in FIG. 4) in 10 mM HEPES, 150 mM NaCl, pH 7.5 containing 0.005% Tween 20 and 2 mg/ml BSA (HBS-T) were injected and passed over the surface at injection rate 10 to 100 μl/min or 20 μl/min for 3-5 min. The HBS-T replaced the protein solution and continued to flow for approximately 4 min; further washing with HBS-T for 20-30 min regenerated the surfaces prior to the next injection. The dissociation constants, KD (S) at the equilibrium were determined by fitting the data from the binding isotherm using a non-linear regression curve on the PRISM4 software (GraphPad Software, Inc., San Diego, Calif.).
Fitting the data directly using BIAcore evaluation software, although it is relatively easy, may overestimate the binding affinity between VWF and ADAMTS13 due to the heterogeneity of VWF molecules. […]

The target in data set [6] is T3, von Willebrand factor pre-denatured with 1.5 M guanidine-HCl at 37 C for two hours (UniProt P04275 764-2813).
T3 construct: mature; Same polypeptide as m1; also called VWF**; denatured VWF
Kind of data set: SPR (BIAcore), guanidine-HCl denatured VWF injected over immobilised FL-A13, equilibrium fit.

B1: full-length ADAMTS13, recombinant, C-terminal V5-His (enzyme, UniProt Q76LX8 75-1427, looked up, not shown: small tags and cut ends)
chain: AAGGILHLELLVAVGPDVFQAHQEDTERYVLTNLNIGAELLRDPSLGAQFRVHLVKMVILTEPEGAPNITANLTSSLLSVCGWSQTINPEDDTDPGHADLVLYITRFDLELPDGNRQVRGVTQLGGACSPTWSCLITEDTGFDLGVTIAHEIGHSFGLEHDGAPGSGCGPSGHVMASDGAAPRAGLAWSPCSRRQLLSLLSAGRARCVWDPPRPQPGSAGHPPDAQPGLYYSANEQCRVAFGPKAVACTFAREHLDMCQALSCHTDPLDQSSCSRLLVPLLDGTECGVEKWCSKGRCRSLVELTPIAAVHGRWSSWGPRSPCSRSCGGGVVTRRRQCNNPRPAFGGRACVGADLQAEMCNTQACEKTQLEFMSQQCARTDGQPLRSSPGGASFYHWGAAVPHSQGDALCRHMCRAIGESFIMKRGDSFLDGTRCMPSGPREDGTLSLCVSGSCRTFGCDGRMDSQQVWDRCQVCGGDNSTCSPRKGSFTAGRAREYVTFLTVTPNLTSVYIANHRPLFTHLAVRIGGRYVVAGKMSISPNTTYPSLLEDGRVEYRVALTEDRLPRLEEIRIWGPLQEDADIQVYRRYGEEYGNLTRPDITFTYFQPKPRQAWVWAAVRGPCSVSCGAGLRWVNYSCLDQARKELVETVQCQGSQQPPAWPEACVLEPCPPYWAVGDFGPCSASCGGGLRERPVRCVEAQGSLLKTLPPARCRAGAQQPAVALETCNPQPCPARWEVSEPSSCTSAGGAGLALENETCVPGADGLEAPVTEGPGSVDEKLPAPEPCVGMSCPPGWGHLDATSAGEKAPSPWGSIRTGAQAAHVWTPAAGSCSVSCGRGLMELRFLCMDSALRVPVQEELCGLASKPGSRREVCQAVPCPARWQYKLAACSVSCGRGVVRRILYCARAHGEDDGEEILLDTQCQGLPRPEPQEACSLEPCPPRWKVMSLGPCSASCGLGTARRSVACVQLDQGQDVEVDEAACAALVRPEASVPCLIADCTYRWHVGTWMECSVSCGDGIQRRRDTCLGPQAQAPVPADFCQHLPKPVTVRGCWAGPCVGQGTPSLVPHEEAAAPGRTTATPAGASLEWSQARGLLFSPAPQPRRLLPGPQENSVQSSACGRQHLEPTGTIDMRGPGQADCAVAIGRPLGEVVTLRVLESSLNCSAGDMLLLWGRLTWRKMCRKLLDMTFSSKTNTLVVRQRCGRPGGGVLLRYGSQLAPETFYRECDMQLFGPWGEIVSPSLSPATSNAGGCRLFINVAPHARIAIHALATNMGAGTEGANASYILIRDTHSLRTTAFHGQQVLYWESESSQAEMEFSEGFLKAQASLRGQYWTLQSWVPEMQDPQSWKGKEGT
notes: mature; also called FL-A13; FL-AD13
Turning to B1, the “increase of the initial rate of cleavage of FRETS-vWF73 and GST-vWF73 by ADAMTS13” value in data set [1], in data set [2] and in data set [3] was “by a factor of 2 or 3” each time. Besides, the Kd (usually the constant that tells how readily two partners part at equilibrium) in data set [4] was 0.05 µM; in data set [5], 0.077 µM; in data set [6] it was 0.083 µM.
